Experiments:
[1] = system: colon carcinoma cell lines; assay: LDH release assay; format: cell-based, human; conditions: all colon carcinoma cell lines used; p<0.05, n=4
Method: Lactate dehydrogenase activity was assayed spectrophotometrically by measuring the oxidation of NADH with pyruvate substrate at 340 nm as described in Bergmeyer and Berndt E. (1974). Results were analyzed using the following equation: […]

[2] = system: colon carcinoma cell lines; assay: MTT assay; format: cell-based, human; conditions: all colon carcinoma cell lines used; 0, 24, 48 hours; p<0.05, n=4
Method: Assays were performed at three time points (0, 24, 48 hours), and the experiment was repeated four times. At each time point the cell viability was measured using the 3-(4,5-dimethylthiazol-2-yl)-2,5-diphenyl tetrazolium bromide (MTT) assay. The MTT assay was performed as described by Mosmann (Mosmann T. Rapid colorimetric assay for cellular growth and survival: application to proliferation and cytotoxicity assays. J Immunol Methods. 1983;65:55-63.). In brief, at each time point, medium was aspirated from the wells and MTT (1 mg/ml) was gently added to each well. The cells were incubated for 3 hours at 37° C. in 5% CO2, after which the MTT was aspirated and acidified isopropanol (0.04 M HCl) added to solubilize the reduced blue formazan crystals. Aliquots were transferred to a 96-well plate and the absorbance measured at a test filter of 590 nm and a reference filter of 630 nm on a 96-well plate reader.

B1: GInHMGB1: HMGB1 polypeptide with its B-Box domain tyrosine residues replaced by glutamine (SEQ ID NO:12), expressed in HEK cells (protein)
chain: MGKGDPKKPRGKMSSYAFFVQTCREEHKKKHPDASVNFSEFSKKCSERWKTMSAKEKGKFEDMAKADKARYEREMKTYIPPKGETKKKFKDPNAPKRPPSAFFLFCSEQRPKIKGEHPGLSIGDVAKKLGEMWNNTAADDKQPQEKKAAKLKEKQEKDIAAQRAKGKPDAAKKGVVKAEKSKKKKEEEEDEEDEEDEEEEEDEEDEDEEEDDDDE
modifications: HMGB1 Y -> Q mutein
In the case of B1, the “release of LDH into the medium compared to the untreated control” value [1] is reported as “significant release of LDH” and the “proliferation (cell viability, MTT) compared to the untreated control” value [2] is reported as “significant decrease in proliferation”.
